Assays:
[1] = biological target: native human complement C3 (human) (UniProt P01024)
[2] = biological target: Alexa Fluor 594 labelled human C3b (human) (UniProt P01024); test: flow cytometry on cells; competition: recombinant ISG65 at 1.5-fold molar excess preincubated with AF594 labelled C3b for 10 min before addition to T. b. gambiense cells on ice
[3] = biological target: His-C3d-Avi, biotinylated (human); test: SPR; biotinylated His-C3d-Avi immobilised on Series S sensor chip CAP, BIAcore T200, 25 °C; 20 mM HEPES pH 7.5, 150 mM NaCl, 3 mM EDTA, 0.005% TWEEN-20; analytes ISG65 and ISG65 mutants 1.5-100 nM
[4] = biological target: His-ISG65_(18-363)-Avi, C-terminally biotinylated (T. b. gambiense); test: SPR; biotinylated His-ISG65_(18-363)-Avi immobilised on Series S sensor chip CAP, BIAcore T200, 25 °C; 20 mM HEPES pH 7.5, 150 mM NaCl, 3 mM EDTA, 0.005% TWEEN-20; analytes C3d and C3d mutants (0.78-50 nM), native C3, C3b, C3MA, C3c
[5] = biological target: His-C3d-Avi, biotinylated; test: SPR
[6] = biological target: His-ISG65_(18-363), extracellular domain of invariant surface glycoprotein 65 of T. b. gambiense (T. b. gambiense); test: SPR; His-ISG65_(18-363) covalently immobilised via amine coupling; C3a (8-0.25 µM) flown over at 30 µl/min, 100 s association, 300 s dissociation; regeneration 1 M NaCl
[7] = biological target: His-ISG65_(18-363) Glu302Ala (T. b. gambiense); test: as above
[8] = biological target: His-ISG65_(18-363) Lys97Ala (T. b. gambiense); test: as above
[9] = biological target: His-ISG65_(18-363), extracellular domain of invariant surface glycoprotein 65 of T. b. gambiense (T. b. gambiense); test: cross-linking; ISG65 and C3b mixed 2:1, 100x molar excess of DSA, 20 mM HEPES pH 7.5, 150 mM NaCl, room temperature 30 min; SDS-PAGE

Sequence of human complement C3a (P01024 672-748): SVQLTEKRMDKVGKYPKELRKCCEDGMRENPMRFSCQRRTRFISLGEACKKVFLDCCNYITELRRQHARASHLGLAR
Sequence of native human complement C3 (human) (P01024 23-667, chain 1 of 2): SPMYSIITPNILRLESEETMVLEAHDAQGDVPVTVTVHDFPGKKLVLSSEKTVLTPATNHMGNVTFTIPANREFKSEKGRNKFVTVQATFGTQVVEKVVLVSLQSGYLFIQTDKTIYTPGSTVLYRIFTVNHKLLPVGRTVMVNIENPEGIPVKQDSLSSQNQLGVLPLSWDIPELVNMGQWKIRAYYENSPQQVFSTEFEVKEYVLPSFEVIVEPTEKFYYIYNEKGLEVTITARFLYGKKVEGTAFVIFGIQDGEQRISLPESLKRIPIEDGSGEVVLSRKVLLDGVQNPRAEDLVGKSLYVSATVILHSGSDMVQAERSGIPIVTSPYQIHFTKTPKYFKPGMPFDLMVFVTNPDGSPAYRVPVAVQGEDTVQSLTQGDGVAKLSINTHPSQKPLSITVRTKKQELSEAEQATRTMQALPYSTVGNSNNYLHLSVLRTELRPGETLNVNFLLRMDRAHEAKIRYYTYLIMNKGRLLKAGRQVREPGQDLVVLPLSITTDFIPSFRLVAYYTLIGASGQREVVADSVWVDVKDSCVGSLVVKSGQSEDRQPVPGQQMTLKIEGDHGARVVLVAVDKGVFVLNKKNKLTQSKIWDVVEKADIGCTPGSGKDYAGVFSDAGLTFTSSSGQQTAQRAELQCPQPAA
Sequence of native human complement C3 (human) (P01024 672-1663, chain 2 of 2): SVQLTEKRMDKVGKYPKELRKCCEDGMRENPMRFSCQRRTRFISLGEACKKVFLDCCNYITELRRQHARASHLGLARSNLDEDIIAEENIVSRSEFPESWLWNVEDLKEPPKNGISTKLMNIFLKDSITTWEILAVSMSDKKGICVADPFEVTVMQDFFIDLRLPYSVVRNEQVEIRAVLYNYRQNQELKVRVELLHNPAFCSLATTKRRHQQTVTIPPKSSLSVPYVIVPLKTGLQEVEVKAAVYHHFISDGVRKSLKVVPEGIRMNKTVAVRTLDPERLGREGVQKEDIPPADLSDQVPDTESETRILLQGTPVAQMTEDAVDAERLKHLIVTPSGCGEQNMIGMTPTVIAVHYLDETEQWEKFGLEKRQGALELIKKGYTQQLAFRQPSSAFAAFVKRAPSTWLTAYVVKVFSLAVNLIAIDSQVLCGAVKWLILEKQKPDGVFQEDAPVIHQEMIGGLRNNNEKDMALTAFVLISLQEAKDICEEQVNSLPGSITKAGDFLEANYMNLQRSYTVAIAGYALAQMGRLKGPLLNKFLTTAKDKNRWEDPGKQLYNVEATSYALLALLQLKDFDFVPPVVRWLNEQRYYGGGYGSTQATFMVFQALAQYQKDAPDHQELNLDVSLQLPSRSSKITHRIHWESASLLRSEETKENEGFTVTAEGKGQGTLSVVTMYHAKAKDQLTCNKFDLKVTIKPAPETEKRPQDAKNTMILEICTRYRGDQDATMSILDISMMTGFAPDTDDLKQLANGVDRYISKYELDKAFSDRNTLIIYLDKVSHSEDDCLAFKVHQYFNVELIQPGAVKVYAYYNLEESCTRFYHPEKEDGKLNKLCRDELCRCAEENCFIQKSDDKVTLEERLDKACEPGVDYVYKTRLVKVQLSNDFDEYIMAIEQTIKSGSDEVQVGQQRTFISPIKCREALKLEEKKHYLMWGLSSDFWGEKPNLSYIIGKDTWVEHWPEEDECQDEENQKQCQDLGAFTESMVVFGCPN
Sequence of Alexa Fluor 594 labelled human C3b (human) (P01024 23-667, chain 1 of 2): as the sequence (P01024 23-667, chain 1 of 2) above
Sequence of Alexa Fluor 594 labelled human C3b (human) (P01024 749-1663, chain 2 of 2): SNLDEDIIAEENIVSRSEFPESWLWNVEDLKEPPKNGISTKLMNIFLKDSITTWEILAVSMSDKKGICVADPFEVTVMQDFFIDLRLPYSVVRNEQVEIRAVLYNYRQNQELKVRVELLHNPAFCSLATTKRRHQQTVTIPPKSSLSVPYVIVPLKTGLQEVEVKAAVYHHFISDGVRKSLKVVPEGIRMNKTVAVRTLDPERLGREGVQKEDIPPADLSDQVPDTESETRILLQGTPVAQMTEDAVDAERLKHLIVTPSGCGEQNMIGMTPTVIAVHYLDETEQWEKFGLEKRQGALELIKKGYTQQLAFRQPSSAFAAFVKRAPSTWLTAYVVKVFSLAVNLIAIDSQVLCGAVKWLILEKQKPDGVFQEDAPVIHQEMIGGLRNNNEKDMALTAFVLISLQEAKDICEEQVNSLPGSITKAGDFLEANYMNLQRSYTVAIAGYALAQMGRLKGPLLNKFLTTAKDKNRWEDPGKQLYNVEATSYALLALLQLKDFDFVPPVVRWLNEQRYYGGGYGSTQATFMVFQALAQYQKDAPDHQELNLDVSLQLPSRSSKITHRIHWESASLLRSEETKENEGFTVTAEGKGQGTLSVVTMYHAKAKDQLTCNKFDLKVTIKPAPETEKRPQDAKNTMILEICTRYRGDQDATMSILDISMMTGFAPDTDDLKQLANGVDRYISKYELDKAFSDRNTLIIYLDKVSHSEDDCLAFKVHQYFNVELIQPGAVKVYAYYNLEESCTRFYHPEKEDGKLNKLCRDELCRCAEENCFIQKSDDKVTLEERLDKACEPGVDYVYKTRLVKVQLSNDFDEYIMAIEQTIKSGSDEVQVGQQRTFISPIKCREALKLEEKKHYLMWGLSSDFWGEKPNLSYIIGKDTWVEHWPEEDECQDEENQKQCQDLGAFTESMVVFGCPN

For “His-ISG65_(18-363), extracellular domain of invariant surface glycoprotein 65 of T. b. gambiense (domain or fragment)”, the AP50 haemolysis assay: lysis of rabbit erythrocytes in human serum after activation of the alternative pathway, soluble ISG65 7.5-0 µM [1] was less than 90% and the percent reduction of C3b surface binding to T. b. gambiense cells [2] was 60%.

In the case of “His-ISG65_(18-363) Trp211Ala (domain or fragment)”, the KD relative to wild type (so in the source) [3] is reported as 42%.

For “C3MA, methylamine-treated human C3 (from UniProt P01024 23-667; P01024 672-1663) (natural protein)”, the Kd [4] was 18 nM.

His-C3d Arg1134Ala (domain or fragment) gave a KD relative to wild type (so in the source) [4] of 30%.

“His-C3d, recombinant human C3d (domain or fragment)” was tested, and the Kd [4] was 7 nM.

With “His-ISG65_(18-363), extracellular domain of invariant surface glycoprotein 65 of T. b. gambiense T297A” the percent of parent [5] was 15%.

“human complement C3a (from UniProt P01024 672-748) (domain or fragment)” showed a Kd [6] of 18 µM, a Kd [7] of 78 µM and a Kd [8] of 80 µM.

“native human complement C3 (from UniProt P01024 23-667; P01024 672-1663) (natural protein)” gave a Kd [4] of 130 nM.

Substance “His-ISG65_(18-363), extracellular domain of invariant surface glycoprotein 65 of T. b. gambiense Y70A” has a percent of parent [5] of 36%.

Work on “human complement C3b (from UniProt P01024 23-667; P01024 749-1663) (domain or fragment)” yielded a stoichiometry N [9] of 1 and a Kd [4] of 81 nM.
